Experimental data taken from patent publication US20170327598A1 (published 2017).

What was measured:
STAT 5a protein = target: T1, STAT 5a protein (UniProt P42229 1-794, limits assumed); assay: sandwich ELISA, STAT protein coated at 0.5 µg/mL
T1 sequence (looked up): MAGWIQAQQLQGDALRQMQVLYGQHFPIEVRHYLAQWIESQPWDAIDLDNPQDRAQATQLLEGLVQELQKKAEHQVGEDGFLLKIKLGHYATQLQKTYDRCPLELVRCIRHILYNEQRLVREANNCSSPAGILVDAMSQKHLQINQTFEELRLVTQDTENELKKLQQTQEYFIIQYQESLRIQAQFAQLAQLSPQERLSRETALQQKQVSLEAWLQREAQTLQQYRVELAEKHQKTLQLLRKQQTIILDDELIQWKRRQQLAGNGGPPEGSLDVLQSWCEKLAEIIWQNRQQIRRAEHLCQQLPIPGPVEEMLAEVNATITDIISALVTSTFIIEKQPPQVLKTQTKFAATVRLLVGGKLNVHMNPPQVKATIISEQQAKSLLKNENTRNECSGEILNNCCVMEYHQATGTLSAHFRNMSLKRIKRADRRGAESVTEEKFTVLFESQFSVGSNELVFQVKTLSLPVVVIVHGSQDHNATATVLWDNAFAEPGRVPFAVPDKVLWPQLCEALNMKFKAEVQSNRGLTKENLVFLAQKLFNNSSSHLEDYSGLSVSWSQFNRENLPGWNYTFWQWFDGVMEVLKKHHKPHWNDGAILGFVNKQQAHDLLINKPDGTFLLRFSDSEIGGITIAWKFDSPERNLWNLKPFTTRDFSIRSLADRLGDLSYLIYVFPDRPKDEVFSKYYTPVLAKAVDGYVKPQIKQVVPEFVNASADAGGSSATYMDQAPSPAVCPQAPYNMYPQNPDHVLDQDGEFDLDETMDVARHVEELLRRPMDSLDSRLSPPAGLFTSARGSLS

STAT 2 protein = STAT 2 protein (UniProt P52630 1-851, limits assumed); assay: sandwich ELISA, STAT protein coated at 0.5 µg/mL
Chain of STAT 2 protein (P52630 whole entry): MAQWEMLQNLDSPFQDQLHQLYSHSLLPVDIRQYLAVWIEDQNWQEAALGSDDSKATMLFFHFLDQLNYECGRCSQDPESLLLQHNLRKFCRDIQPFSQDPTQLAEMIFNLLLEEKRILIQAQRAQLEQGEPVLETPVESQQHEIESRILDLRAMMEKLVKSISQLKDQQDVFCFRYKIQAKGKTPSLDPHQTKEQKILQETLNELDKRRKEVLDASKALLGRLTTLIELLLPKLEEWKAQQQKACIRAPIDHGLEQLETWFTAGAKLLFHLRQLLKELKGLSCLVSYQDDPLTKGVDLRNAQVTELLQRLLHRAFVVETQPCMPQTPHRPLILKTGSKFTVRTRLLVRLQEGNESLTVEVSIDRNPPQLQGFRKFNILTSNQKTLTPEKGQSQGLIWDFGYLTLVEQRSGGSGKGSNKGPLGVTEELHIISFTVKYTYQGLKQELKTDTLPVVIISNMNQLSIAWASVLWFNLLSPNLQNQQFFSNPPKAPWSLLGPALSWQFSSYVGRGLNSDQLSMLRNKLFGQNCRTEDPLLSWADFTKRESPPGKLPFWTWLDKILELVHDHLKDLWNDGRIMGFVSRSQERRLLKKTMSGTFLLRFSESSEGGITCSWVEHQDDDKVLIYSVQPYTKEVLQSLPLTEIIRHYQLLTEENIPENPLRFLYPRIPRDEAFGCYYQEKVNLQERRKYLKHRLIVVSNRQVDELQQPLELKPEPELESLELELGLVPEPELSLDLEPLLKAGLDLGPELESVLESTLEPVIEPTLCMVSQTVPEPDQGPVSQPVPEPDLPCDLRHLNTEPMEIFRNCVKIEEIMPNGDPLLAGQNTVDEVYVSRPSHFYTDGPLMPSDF

B1: anti-STAT3 VHH13 (SEQ ID NO:3) sdAb (VHH)
VHH: HVQLVESGGGSVQAGGSLRLSCAASGANGGRSCMGWFRQVPGKEREGVSGISTGGLITYYADSVKGRFTISQDNTKNTLYLQMNSLKPEDTAMYYCATSRFDCYRGSWFNRYMYNSWGQGTQVTVSS
In the case of B1, the “Mean OD450” value (STAT 5a protein) is reported as 0.821 OD450 and the “Mean OD450” value (STAT 2 protein) is reported as 0.186 OD450.
